Measured values published in paper doi:10.1101/244665 (bioRxiv, 2019).

Molecular target: the molecule itself
Assay: SEC

B1: Plasmodium falciparum M17 aminopeptidase (PfA-M17), wild type, truncated (amino acids 85-605) (enzyme, UniProt Q8IL11 85-605, looked up)
chain: ASEVPQVVSLDPTSIPIEYNTPIHDIKVQVYDIKGGCNVEEGLTIFLVNNPGKENGPVKISSKVNDKNVSEFLKDENMEKFNVKLGTSKHFYMFNDNKNSVAVGYVGCGSVADLSEADMKRVVLSLVTMLHDNKLSKLTVVFEINVDKNLFRFFLETLFYEYMTDERFKSTDKNVNMEYIKHLGVYINNADTYKEEVEKARVYYFGTYYASQLIAAPSNYCNPVSLSNAAVELAQKLNLEYKILGVKELEELKMGAYLSVGKGSMYPNKFIHLTYKSKGDVKKKIALVGKGITFDSGGYNLKAAPGSMIDLMKFDMSGCAAVLGCAYCVGTLKPENVEIHFLSAVCENMVSKNSYRPGDIITASNGKTIEVGNTDAEGRLTLADALVYAEKLGVDYIVDIATLTGAMLYSLGTSYAGVFGNNEELINKILNSSKTSNEPVWWLPIINEYRATLNSKYADINNISSSVKASSIVASLFLKEFVQNTAWAHIDIAGVSWNFKARKPKGFGVRLLTEFVLNDAL
stoichiometry N: 6

B2: PfA-M17(A387P) (enzyme, Plasmodium falciparum, UniProt Q8IL11 85-605, looked up)
chain: ASEVPQVVSLDPTSIPIEYNTPIHDIKVQVYDIKGGCNVEEGLTIFLVNNPGKENGPVKISSKVNDKNVSEFLKDENMEKFNVKLGTSKHFYMFNDNKNSVAVGYVGCGSVADLSEADMKRVVLSLVTMLHDNKLSKLTVVFEINVDKNLFRFFLETLFYEYMTDERFKSTDKNVNMEYIKHLGVYINNADTYKEEVEKARVYYFGTYYASQLIAAPSNYCNPVSLSNAAVELAQKLNLEYKILGVKELEELKMGAYLSVGKGSMYPNKFIHLTYKSKGDVKKKIALVGKGITFDSGGYNLKPAPGSMIDLMKFDMSGCAAVLGCAYCVGTLKPENVEIHFLSAVCENMVSKNSYRPGDIITASNGKTIEVGNTDAEGRLTLADALVYAEKLGVDYIVDIATLTGAMLYSLGTSYAGVFGNNEELINKILNSSKTSNEPVWWLPIINEYRATLNSKYADINNISSSVKASSIVASLFLKEFVQNTAWAHIDIAGVSWNFKARKPKGFGVRLLTEFVLNDAL
stoichiometry N: 6

B3: PfA-M17(Δ388–389) (enzyme, Plasmodium falciparum, UniProt Q8IL11 85-605, looked up)
chain: ASEVPQVVSLDPTSIPIEYNTPIHDIKVQVYDIKGGCNVEEGLTIFLVNNPGKENGPVKISSKVNDKNVSEFLKDENMEKFNVKLGTSKHFYMFNDNKNSVAVGYVGCGSVADLSEADMKRVVLSLVTMLHDNKLSKLTVVFEINVDKNLFRFFLETLFYEYMTDERFKSTDKNVNMEYIKHLGVYINNADTYKEEVEKARVYYFGTYYASQLIAAPSNYCNPVSLSNAAVELAQKLNLEYKILGVKELEELKMGAYLSVGKGSMYPNKFIHLTYKSKGDVKKKIALVGKGITFDSGGYNLKAGSMIDLMKFDMSGCAAVLGCAYCVGTLKPENVEIHFLSAVCENMVSKNSYRPGDIITASNGKTIEVGNTDAEGRLTLADALVYAEKLGVDYIVDIATLTGAMLYSLGTSYAGVFGNNEELINKILNSSKTSNEPVWWLPIINEYRATLNSKYADINNISSSVKASSIVASLFLKEFVQNTAWAHIDIAGVSWNFKARKPKGFGVRLLTEFVLNDAL
stoichiometry N: 6

B4: PfA-M17(Δ388–390) (enzyme, Plasmodium falciparum, UniProt Q8IL11 85-605, looked up)
chain: ASEVPQVVSLDPTSIPIEYNTPIHDIKVQVYDIKGGCNVEEGLTIFLVNNPGKENGPVKISSKVNDKNVSEFLKDENMEKFNVKLGTSKHFYMFNDNKNSVAVGYVGCGSVADLSEADMKRVVLSLVTMLHDNKLSKLTVVFEINVDKNLFRFFLETLFYEYMTDERFKSTDKNVNMEYIKHLGVYINNADTYKEEVEKARVYYFGTYYASQLIAAPSNYCNPVSLSNAAVELAQKLNLEYKILGVKELEELKMGAYLSVGKGSMYPNKFIHLTYKSKGDVKKKIALVGKGITFDSGGYNLKASMIDLMKFDMSGCAAVLGCAYCVGTLKPENVEIHFLSAVCENMVSKNSYRPGDIITASNGKTIEVGNTDAEGRLTLADALVYAEKLGVDYIVDIATLTGAMLYSLGTSYAGVFGNNEELINKILNSSKTSNEPVWWLPIINEYRATLNSKYADINNISSSVKASSIVASLFLKEFVQNTAWAHIDIAGVSWNFKARKPKGFGVRLLTEFVLNDAL
stoichiometry N: 6
